Test results published in US20190359719A1 (published 2019).
Numbering of substitutions follows the chain as printed.

T1: recombinant c-Met extracellular domain (R&D Systems cat#358-MT-100/CF) (UniProt P08581 25-932)
T1 chain: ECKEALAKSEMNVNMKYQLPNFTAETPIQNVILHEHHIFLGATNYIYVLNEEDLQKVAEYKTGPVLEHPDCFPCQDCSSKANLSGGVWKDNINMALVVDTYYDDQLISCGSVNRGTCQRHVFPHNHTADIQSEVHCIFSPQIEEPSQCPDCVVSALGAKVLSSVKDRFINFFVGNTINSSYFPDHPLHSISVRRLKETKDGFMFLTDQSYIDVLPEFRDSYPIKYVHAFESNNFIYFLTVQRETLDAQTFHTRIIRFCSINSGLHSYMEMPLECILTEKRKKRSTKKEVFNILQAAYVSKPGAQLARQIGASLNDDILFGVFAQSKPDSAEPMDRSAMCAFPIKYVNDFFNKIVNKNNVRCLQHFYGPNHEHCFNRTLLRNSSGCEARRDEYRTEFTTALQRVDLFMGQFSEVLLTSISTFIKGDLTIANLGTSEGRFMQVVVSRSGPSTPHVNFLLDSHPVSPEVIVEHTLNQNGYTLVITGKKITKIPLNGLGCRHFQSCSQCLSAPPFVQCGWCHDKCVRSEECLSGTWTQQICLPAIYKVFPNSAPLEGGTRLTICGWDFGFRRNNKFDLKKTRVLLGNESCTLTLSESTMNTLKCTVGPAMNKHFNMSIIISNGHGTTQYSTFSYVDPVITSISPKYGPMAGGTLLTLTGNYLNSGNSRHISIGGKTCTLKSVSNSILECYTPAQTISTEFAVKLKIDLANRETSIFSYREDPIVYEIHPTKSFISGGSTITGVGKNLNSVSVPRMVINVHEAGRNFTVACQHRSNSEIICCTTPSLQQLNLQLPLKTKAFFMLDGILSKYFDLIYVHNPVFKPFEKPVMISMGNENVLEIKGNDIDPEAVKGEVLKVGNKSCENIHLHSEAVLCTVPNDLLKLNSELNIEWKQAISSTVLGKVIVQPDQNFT

B1: E1 anti-c-Met antibody in IgG format (antibody, V domains shown)
VH: QVQLVQSGAEVKKPGASVKVSCKTSGYTFSGDYMHWVRQAPGQGLEWMGWINPNSGGTNYAQKFQGRVTMTRDTSISTAYMELSRLRSDDTAVYYCAREPGRDYYYYDGMDVWGQGTTVTVSS
VL: QSVVTQPPSVSGAPGQRVTISCTGSSSNIGAGYDVHWYQQLPGTVPKLLIYGNSNRPSGVPDRFSGSKSGTSASLAITGLQAEDEADYYCQSYDSSLSAYVFGTGTKVTVL
B2: H8 anti-c-Met antibody in IgG format (antibody, V domains shown)
VH: EVQLVQSGAEVKKPGASVKVSCKASGYTFSSYYMHWVRQAPGQGLEWMGWINPNSGNTGYAQKFQGRVTMTRNTSISTAYMELSSLRSEDTAVYYCARRGTTVSFDYWGQGTLVTVS
VL: QLVLTQSPSVSVAPGQRVTISCSGSNSNIGNNYVSWYHHLPGTAPKLLIYDNNKRPSGIPDRFSGSKSGTSATLGITGLQPGDEAHYYCGTWDSTLSAGVFGGGTKLTVL
B3: F3 anti-c-Met antibody in IgG format (antibody, V domains shown)
VH: QVQLVESGPGLVKPSGTLSLTCAVSGGSISSSNWWSWVRQPPGKGLEWIGEIYHSGSTNYNPSLKSRVTISVDKSKNQFSLKLSSVTAADTAVYYCARSAYGDYFLDYWGQGTLVTVSS
VL: QSVLTQPASVSGSPGQSITISCTGTSSDVGGYNYVSWYQQHPGKAPKLLIYDVDSRPSGVSNRFSGSKSGNTASLTISGLQAEDEADYYCSSFTSSSTLVVFGGGTKVTVL
B4: B12 anti-c-Met antibody in IgG format (antibody, V domains shown)
VH: QVQLVESGAEVKKPGASVKVSCKASGYTFTGYYMHWVRQAPGQGLEWMGWINPNSGNTGYAQKFQGRVTMTRNTSISTAYMELSSLRSEDTAVYYCARRGTTVSFDYWGQGTTVTVSS
VL: QAVLTQPPSVSGSPGQSITISCTGTSSDVGTFNLVSWYQQHPGKAPKLIIYEVSKRPSDVSPRYSGSKSGTTASLTISVLQTEDEADYYCCSYTTSSSYVFGIGTKVTVL
B5: A1-4 anti-c-Met antibody (antibody, V domains shown)
VH: QVQLQESGPGLVKPSQTLSLTCTVSGGSISSGGYYWSWIRQHPGKGLEWIGESSHSGSTNYNPSLKSRVTISVDTSKNQFSLKLSSVTAADTAVYYCARGRDGYYFDAWGQGTLVTVSS
VL: LPVLTQPASVSGSPGQSITISCTGTSSDVGGYPYVSWYQQHPGKAPKLMIYVVSDRPSGVSTRFSGSKSGNTASLTISGLQAEDEADYYCSSYRSSSALVVFGGGTQLTVL
B6: A1-2 anti-c-Met antibody (antibody, V domains shown)
VH: B5 VH with S54T, Y105D
VL: B5 VL with S27F, P33N, V52D, Y93F, Q107K
B7: A1-8 (antibody, V domains shown)
VH: B5 VH with S53I, K66E, Y105D, F106L, A108R
VL: B5 VL with V52R, S97A, Q107K
B8: A1-6 anti-c-Met antibody (antibody, V domains shown)
VH: B5 VH with S53I, S54T, Y105D, F106I
VL: B5 VL with S27W, V52D, S96V, Q107K
B9: A1-9 anti-c-Met antibody (antibody, V domains shown)
VH: B5 VH with S53I, F106L, A108Q
VL: B5 VL with P33N, V52N, Y93F, Q107K
B10: A1 anti-c-Met antibody in IgG format (antibody, V domains shown)
VH: B5 VH with S53I, S54N, Y105D, A108P
VL: B5 VL with P33N, V52D, Q107K
B11: A1-24 anti-c-Met antibody (antibody, V domains shown)
VH: B5 VH with S54T, K66E, G103S, Y105D
VL: B5 VL with S27F, P33N, V52D, Y93F, S97A, Q107K
B12: A1-32 anti-c-Met antibody (antibody, V domains shown)
VH: B5 VH with S54T, K66D, F106L, A108Q
VL: B5 VL with S27F, V52D, Y93F, S97A, Q107K
B13: El-A14 (E1 derived anti-c-Met antibody) (antibody, V domains shown)
VH: B1 VH with T24A, M34I, G101A, M110L
VL: B1 VL with T23I, Y33H, V45A, D94S
B14: El-B11 (E1 derived anti-c-Met antibody) (antibody, V domains shown)
VH: B1 VH with T24A, M34I, G101A, M110L
VL: B1 VL with T23I, V45A, P57I, D94S, Y100V, V101L
B15: El-A18 (E1 derived anti-c-Met antibody) (antibody, V domains shown)
VH: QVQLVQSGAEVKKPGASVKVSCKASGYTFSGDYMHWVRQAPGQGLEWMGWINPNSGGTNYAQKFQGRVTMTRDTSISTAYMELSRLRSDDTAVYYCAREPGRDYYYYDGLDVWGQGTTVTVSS
VL: B1 VL with T23I, S26A, Y33H, V45A, D94S
B16: El-B19 (E1 derived anti-c-Met antibody) (antibody, V domains shown)
VH: B1 VH with T24A, Y27F, M34I, M110L
VL: B1 VL with T23L, S26A, Y33H, V45A, D94S, Y100V, V101L
B17: El-A10 (E1 derived anti-c-Met antibody) (antibody, V domains shown)
VH: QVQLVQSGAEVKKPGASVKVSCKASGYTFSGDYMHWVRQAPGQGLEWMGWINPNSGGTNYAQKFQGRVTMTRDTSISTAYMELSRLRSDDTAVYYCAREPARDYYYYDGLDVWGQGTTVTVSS
VL: B1 VL with T23L, S26A, Y33H, V45A, D94S
B18: El-BR1 (E1 derived anti-c-Met antibody) (antibody, V domains shown)
VH: B1 VH with T24A, Y27S, M34L, G101A, M110L
VL: B1 VL with T23L, S26A, V45A, D94S, Y100V, V101L
B19: El-A11 (E1 derived anti-c-Met antibody) (antibody, V domains shown)
VH: B1 VH with T24A, Y27F, M34I, G101A, M110L
VL: B1 VL with T23L, Y33H, V45A, P57I, D94S, V101L
B20: A8 (antibody, V domains shown)
VH: QITLKESGAEVKKPGSSVKVSCKASGGTFSSYGISWVRQAPGQGLEWMGGIIPMFGTANYAQKFQGRVTITADESTSTAYMELSSLRSEDTAVYYCARDEVAPDYYGSGPSYGMDVWGQGTMVTVSS
VL: SYELMQPASVSGSPGQSITISCTGTSSDVGGYDHVSWYQQHPGKAPKLMIYAVRNRPSGVPDRFSGSKSGNTASLTISGLQAEDEADYYCSSYTSSLTYVFGTGTKVTVL
B21: A2 (antibody, V domains shown)
VH: QVQLQESGPGLVKPSGTLSLTCAVSGGSISRSNWWSWVRQPPGKGLEWIGEVYHSGSTNYNPSLKSRVTISVDKSKNQFSLKVNSVTAADTAVYYCARDSDGGYYFDYWGQGTLVTVSS
VL: LPVLTQPASVSGSPGQSITISCTGTSSDVGGYKYVSWYQQHPGKAPKLLIYDVTDRPSGVSNRFSGSQSGNTASLTISGLQTEDEADYYCSSYTDNGALVVFGGGTKLTVL
B22: D6 anti-c-Met antibody in IgG format (antibody, V domains shown)
VH: QVQLQQWGAGLLKPSETLSLTCAVYGGSFSGYYWSWIRQPPGKGLEWIGEINHSGSTNYNPSLKSRVTISVDTSKNQFSLKLSSVTAADTAVYYCARGRDGYDFDPWGQGTLVTVSS
VL: QSVLTQPPSASGSPGQSVTISCTGTSSDVGGYNYVSWYQQHPGKAPKLMIYEVSKRPSGVPDRFSGSKSGNTASLTVSGLQAEDEADYYCSSYAGSNNLVVFGGGTQLTVL

Target: T1, recombinant c-Met extracellular domain …
Test: Octet Red (BLI)

Kd [nM] | Binder
4.5 | B1
0.8 | B2

Target: T1, recombinant c-Met extracellular domain …
Test: Octet Red (BLI)
Remark: another data set of the same source

Kd [nM] | Binder
0.7 | B3
0.15 | B4

Target: T1, recombinant c-Met extracellular domain …
Test: ELISA, blocking of HGF binding to c-Met

IC50 [nM] | Binder
1.44 | B5
1.22 | B6
1.14 | B7
1.34 | B8
1.72 | B9
1.73 | B10
1.52 | B11
0.91 | B12

Target: T1, recombinant c-Met extracellular domain …
Test: Biacore SPR

Kd [nM] | Binder
18.6 | B1
1.98 | B10

Target: T1, recombinant c-Met extracellular domain …
Test: ELISA, blocking of HGF binding to c-Met
Remark: another data set of the same source

IC50 [nM] | Binder
3.18 | B1
2.31 | B13
2.98 | B14
2.69 | B15
2.63 | B16
2.61 | B17
3.11 | B18
2.26 | B19

Target: T1, recombinant c-Met extracellular domain …
Test: Octet Red (BLI)
Remark: another data set of the same source

Kd [nM] | Binder
1.5 | B20
0.8 | B10

Target: T1, recombinant c-Met extracellular domain …
Test: Octet Red (BLI)
Remark: another data set of the same source

Kd [nM] | Binder
2.2 | B21
1.9 | B22

Target: T1, recombinant c-Met extracellular domain …
Test: Biacore SPR
Remark: another data set of the same source

Ka [M⁻¹] | Binder
5.37e+07 | B1
5.3e+08 | B10
